From US8624002B2, “Prostaglandin E2 binding proteins and uses thereof” (AbbVie, Inc., priority 2008, dated 2014)

What was measured:
[1] = Intrinsic thermodynamic stability by DSC; type: physicochemical
Description: The thermal stability of the anti-PGE2 antibodies was assessed using a DSC instrument. The DSC instrument used was an automated VP-DSC equipment with Capillary Cell (Microcal, GE Healthcare Ltd./Microcal, Buckinghamshire, UK). Unfolding of molecules was studied applying a 1° C./minute scan rate over a 25° C.-95° C. temperature range for samples at 1 mg/mL. Additional measurement parameters applied were a fitting period of 16 seconds, a pre-scan wait time of 10 minutes, and measurements were performed in none-feedback mode. Per individual measurement, 420 μL of sample/blank were filled into the DSC measurement sample holder, with a plate fill scheme as provided below. The thermograms obtained were fitted to a non two state model to obtain the midpoint temperatures and enthalpies of the different transitions.
(§1) The stability of a series of clones (i.e., anti-PGE2 antibodies) of the parent anti-PGE2 antibody was assessed by using intrinsic thermodynamic clone stability determination using DSC (0.79 mg/mL clone concentration, formulated at pH 6 in a 10 mM citrate, 10 mM phosphate buffer) and by accelerated stability screening (0.79 mg/mL clone concentration, formulated at pH 6 in a 10 mM citrate, 10 mM phosphate buffer, for 7 days at 50° C.) where clone stability was monitored with SEC (Table 15).

^3H-PGE2 ELISA (binding) = assay: ^3H-PGE2 ELISA (binding)
Description: Alternatively, prostaglandin binding was determined using a ^3H-PGE2 ELISA. Plates were coated at 50 μL/well with 5 μg/ml of goat anti-human IgG (Fc) (Thermo Scientific # 31170, Hudson, N.H.) or goat anti-mouse IgG (Fc) (Thermo Scientific # 31125, Hudson, N.H.) in PBS and incubated overnight at 4° C. The following day, plates were flicked and blotted dry. Plates were blocked with 200 μL/well of Superblock (Thermo Scientific # 37515, Hudson, N.H.) for 1 hour at room temperature. Plates were flicked and blotted dry. Monoclonal antibodies were diluted to 0.04 μg/ml in phosphate buffer solution with Tween 20 (PBST) (Abbott Bioresearch Center, Worcester, Mass.) and 10% Superblock and 50 μL of each antibody was added to each well of the pre-blocked ELISA plate at 2 ng/well and incubated for 1 hour at room temperature. Wells were washed 3 times with PBS+0.1% Tween-20. A serial 3-fold titration of ^3H-PGE2 (Perkin Elmer # NET-428, Waltham, Mass.) was prepared in PBST/10% Superblock. Fifty microliters of the ^3H-PGE2 solution was added to each well of the plate and incubated for 1 hour at room temperature. […] Plates were read using a TopCount reader (Perkin Elmer, Waltham, Mass.) with a 5 minute count delay. An EC50 number was determined using GraphPad Prism 5 (GraphPad Software, La Jolla, Calif.).

[2] = Accelerated stability screening monitored by SEC; type: physicochemical; settings: for Aggregate (%) / Fragment (%) / Monomer (%): SEC
Description: Size exclusion chromatography was used to separate proteins based on size. Proteins are carried in an aqueous mobile phase and through a porous stationary phase resin packed in a column. The retention time in the column is a function of the hydrodynamic size of the protein and the size of the pores in the packed resin bed. Smaller molecules can penetrate into smaller pores in the resin and are retained longer than larger molecules. Upon elution from the column the proteins are detected by UV absorbance. The SEC method used a TSK gel guard (TOSOH Biosciences, Montgomeryville, Pa., cat. no. 08543) and a TSK gel G3000SWxL (TOSOH Biosciences, Montgomeryville, Pa., cat. no. 08541). The mobile phase was 100 mM Na2HPO4, 200 mM Na2SO4, pH 7.0. The flow rate was 0.3 mL/minute. Injection volume was 20 μL of 1 mg/mL sample. The column temperature was room temperature. The autosampler temperature was 2-8° C. The total run time was 50 minutes. The detection was based on UV absorbance at 214 nm wavelength, with band width set at 8 nm, using reference wavelength at 360 nm with band width 100 nm.
as §1

[3] = test system: PGE2 induced Ca++ influx in HEK293 Gα16 cells stably transfected with human EP4 receptor; assay: EP4 bioassay: PGE2 induced Ca++ flux (FLIPR); type: cell-based; settings: PGE2 25 pm; read-out: IC50 (pM) @ PGE2 25 pm Cellular Potency in EP4 assay
Description: The ability of anti-PGE2 antibody to inhibit cellular response of PGE2 in vitro was determined in a Ca^++ flux assay in HEK293 Gα16 cells (Abbott Bioresearch Center, Worcester, Mass.) stably transfected with human EP4 receptor. In brief, an expression plasmid encoding one of the four human PGE2 receptors, EP4, and an expression plasmid encoding Gα16, were co-transfected into human embryonic kidney cell line 293 cells (ATCC# CRL1573, Manassas, Va.). The stable clones co-expressing both human EP4 and Gα16 protein were selected using standard methods (Joseph Sambrook and David W. Russell. Molecular Cloning: A Laboratory Manual Publisher. Published by Cold Spring Harbor Laboratory Press, 2001) and used for the EP4 bioassay. The HEK293 Gα16 cells were plated in black/clear poly-D-lysine plates (Corning #3667, Corning, N.Y.) and incubated with a Ca^++-sensitive dye (Molecular Devices, Sunnyvale, Calif.) for 90 minutes. Stock PGE2 (in 200 proof ethanol) was diluted with FLIPR buffer [containing 1×HBSS (Invitrogen Carlsbad, Calif.), 20 mM HEPES (Invitrogen Carlsbad, Calif.), 0.1% BSA (Sigma, St. Louis, Mo.) and 2.5 mM Probenecid (Sigma, St. Louis, Mo.)]. Anti-PGE2 antibodies or isotype matched control antibodies were also pre-diluted in FLIPR buffer. 25 μl of PGE2 or pre-incubated PGE2/antibody mixture was added to the wells pre-plated with cells. The dose response of PGE2 was determined on a serial titration of PGE2 and using FLIPR1 or Tetra (Molecular Devices, Sunnyvale, Calif.) and EC50 was determined using GraphPad Prism 5 (GraphPad Software, La Jolla, Calif.). […] Ca^++ flux was monitored using FLIPR1 and data was analyzed using GraphPad Prism 5 (GraphPad Software, La Jolla, Calif.).

[4] = Capillary zone electrophoresis; type: physicochemical; settings: running buffer pH 5.5; compared with Hu2B5.2, Hu2B5.4, Hu2B5.6, Hu2B5.8
From the text: Capillary zone electrophoresis is a capillary electrophoresis method in which the capillary is filled with buffer and the separation mechanism is based on differences in electrophoretic mobility of the analyte through the buffer. The electrophoretic mobility of a molecule is related to the charge-to-size ratio. A Beckman-Coulter ProteomeLab PA 800 (Beckman Coulter, Fullerton, Calif.) was used for the CZE analysis. A neutral capillary (eCAP neutral, 56 cm total length, 50 μm I. D. Beckman-Coulter, P/N 477441, Fullerton, Calif.) was used. The method used a 30.2 cm capillary with a detection window 20.2 cm from the sample introduction inlet. The running buffer was 100 mM EACA (6-Aminocaproic acid, Sigma A7824-100 G, St. Louis, Mo.) with 0.1% MC (from 1% Methylcellulose solution, Convergent Bioscience, cat# 101876, Toronto, ON, Canada), pH 5.5.

B1: Hu2B5.9: humanized 2B5-8.0; VH SEQ ID NO 76, VL SEQ ID NO 77 (antibody, V domains shown)
VH: EVQLVQSGAEVKKPGASVKVSCKASGYTFTKYWLGWVRQAPGQGLEWMGDIYPGYDYTHYNEKFKDRVTMTTDTSTSTAYMELRSLRSDDTAVYYCARSDGSSTYWGQGTLVTVSS
VL: DIVMTQTPLSLPVTPGEPASISCTSSQNIVHSNGNTYLEWYLQKPGQSPQLLIYKVSNRFSGVPDRFSGSGSGTDFTLKISRVEAEDVGVYYCFQVSHVPYTFGGGTKVEIKR
In the case of B1, the “Tm1 (° C.)” value ([1]; 0.79 mg/mL, pH 6, 10 mM citrate, 10 mM phosphate) is reported as 73.235 °C, the “Tm2 (° C.)” value ([1]; same buffer) is reported as 75.965 °C and the “Tm3 (° C.)” value ([1]; same buffer) is reported as 83.04 °C. The IC50 (^3H-PGE2 ELISA (binding)) was 0.704 nM, the “monomer levels after 7 days accelerated stability screening” value ([2]; 7 days at 50° C.) was “highest monomer levels” and the “Aggregate (%)” value ([2]; 7 days storage at 50° C.) was 1.9559%. The “Fragment (%)” value ([2]; 7 days storage at 50° C.) was 3.4127%, the “Monomer (%)” value ([2]; 7 days storage at 50° C.) was 94.6313% and the “Fragment (%)” value ([2]; start of stability study) was 2.541%. For the same molecule, the “Monomer (%)” value ([2]; start of stability study) was 95.6031%, the “Aggregate (%)” value ([2]; start of stability study, 0.79 mg/mL, pH 6) was 1.8559% and the IC50 [3] was 125 pM. For the same molecule, the “migration in capillary zone electrophoresis” value [4] was “migrated more basic”.
